These molecules were tested on 3-methylcrotonic acid.
Format: biochemical, Yersinia frederiksenii
Set-up: key: “+” representing a low increase in activity; “++++” representing a high increase in activity

Molecule | Activity relative to WT
I283T-N285P-N287T-Q290E-S322T-N388M-K394R-C430A-L432F-L434W-S436N-i444aR-dG462 (protein) MFLKSLREQINLLKRQGDLRIINRPVDSYLEAAAIIRRSTETKAPVPLMTNIKGYPGCSIVGGLAALSSNPEYPLSRVAMSLGLSTTASAQSIVQYLIDGLKKTPYLPVEIDSNSAPCKQNILRGEDASLAHFPIPQVHQHDGNRYVNTWGVFIVESPDGQWCNWSIQRVQYLNDRQMIALVFPSQHISDIWEEWVKIGKPMPYALVQGCEPIVPYIAGLPLLERNVNEAEYIGALYGKGIEVVKCETHDLRVPASSEVVIEGYFAITREGVEGPFGEFAGYTPPETSLEPILSITAISWQDDPIWPVVAEGKPVDEYHTCTGIGDAAAIQNVLLTANLPVSFVWVPLYSACHLMIVSINRHWRQTHPDLTSEQLTKKVGDVIHQTRMSIKLPRIVVLDDDVDPADTESLLWALATRIHPERKRYFYESAIFPWLNCYSEEERHNRKGKRVIIDALLPENHGAISSFDYAYPDDIKQRVLMHWETDFSHD | ++++
I283T-N285P-N287T-Q290E-S322T-N388M-K394R-C430A-L432F-L434W-S436N-i444aL-dG462 (protein) MFLKSLREQINLLKRQGDLRIINRPVDSYLEAAAIIRRSTETKAPVPLMTNIKGYPGCSIVGGLAALSSNPEYPLSRVAMSLGLSTTASAQSIVQYLIDGLKKTPYLPVEIDSNSAPCKQNILRGEDASLAHFPIPQVHQHDGNRYVNTWGVFIVESPDGQWCNWSIQRVQYLNDRQMIALVFPSQHISDIWEEWVKIGKPMPYALVQGCEPIVPYIAGLPLLERNVNEAEYIGALYGKGIEVVKCETHDLRVPASSEVVIEGYFAITREGVEGPFGEFAGYTPPETSLEPILSITAISWQDDPIWPVVAEGKPVDEYHTCTGIGDAAAIQNVLLTANLPVSFVWVPLYSACHLMIVSINRHWRQTHPDLTSEQLTKKVGDVIHQTRMSIKLPRIVVLDDDVDPADTESLLWALATRIHPERKRYFYESAIFPWLNCYSEEERHNRKGKRVIIDALLPENHGAISSFDYAYPDDIKQRVLMHWETDFSHD | ++++
I283T-N285P-N287T-Q290E-S322T-N388M-K394R-C430A-L432F-L434W-S436N-i444aK-dG462 (protein) MFLKSLREQINLLKRQGDLRIINRPVDSYLEAAAIIRRSTETKAPVPLMTNIKGYPGCSIVGGLAALSSNPEYPLSRVAMSLGLSTTASAQSIVQYLIDGLKKTPYLPVEIDSNSAPCKQNILRGEDASLAHFPIPQVHQHDGNRYVNTWGVFIVESPDGQWCNWSIQRVQYLNDRQMIALVFPSQHISDIWEEWVKIGKPMPYALVQGCEPIVPYIAGLPLLERNVNEAEYIGALYGKGIEVVKCETHDLRVPASSEVVIEGYFAITREGVEGPFGEFAGYTPPETSLEPILSITAISWQDDPIWPVVAEGKPVDEYHTCTGIGDAAAIQNVLLTANLPVSFVWVPLYSACHLMIVSINRHWRQTHPDLTSEQLTKKVGDVIHQTRMSIKLPRIVVLDDDVDPADTESLLWALATRIHPERKRYFYESAIFPWLNCYSEEERHNRKGKRVIIDALLPENHGAISSFDYAYPDDIKQRVLMHWETDFSHD | ++++
I283T-N285P-N287T-Q290E-S322T-N388M-K394R-C430A-L432F-L434W-S436N-i444aN-dG462 (protein) MFLKSLREQINLLKRQGDLRIINRPVDSYLEAAAIIRRSTETKAPVPLMTNIKGYPGCSIVGGLAALSSNPEYPLSRVAMSLGLSTTASAQSIVQYLIDGLKKTPYLPVEIDSNSAPCKQNILRGEDASLAHFPIPQVHQHDGNRYVNTWGVFIVESPDGQWCNWSIQRVQYLNDRQMIALVFPSQHISDIWEEWVKIGKPMPYALVQGCEPIVPYIAGLPLLERNVNEAEYIGALYGKGIEVVKCETHDLRVPASSEVVIEGYFAITREGVEGPFGEFAGYTPPETSLEPILSITAISWQDDPIWPVVAEGKPVDEYHTCTGIGDAAAIQNVLLTANLPVSFVWVPLYSACHLMIVSINRHWRQTHPDLTSEQLTKKVGDVIHQTRMSIKLPRIVVLDDDVDPADTESLLWALATRIHPERKRYFYESAIFPWLNCYSEEERHNRKGKRVIIDALLPENHGAISSFDYAYPDDIKQRVLMHWETDFSHD | ++++
I283T-N285P-N287T-Q290E-S322T-N388M-K394R-C430A-L432F-L434W-S436N-i445aQ-dG462 (protein) MFLKSLREQINLLKRQGDLRIINRPVDSYLEAAAIIRRSTETKAPVPLMTNIKGYPGCSIVGGLAALSSNPEYPLSRVAMSLGLSTTASAQSIVQYLIDGLKKTPYLPVEIDSNSAPCKQNILRGEDASLAHFPIPQVHQHDGNRYVNTWGVFIVESPDGQWCNWSIQRVQYLNDRQMIALVFPSQHISDIWEEWVKIGKPMPYALVQGCEPIVPYIAGLPLLERNVNEAEYIGALYGKGIEVVKCETHDLRVPASSEVVIEGYFAITREGVEGPFGEFAGYTPPETSLEPILSITAISWQDDPIWPVVAEGKPVDEYHTCTGIGDAAAIQNVLLTANLPVSFVWVPLYSACHLMIVSINRHWRQTHPDLTSEQLTKKVGDVIHQTRMSIKLPRIVVLDDDVDPADTESLLWALATRIHPERKRYFYESAIFPWLNCYSEEERHNRKGKRVIIDALLPENHGAISSFDYAYPDDIKQRVLMHWETDFSHD | ++++
I283T-N285P-N287T-Q290E-S322T-N388M-K394R-C430A-L432F-L434W-S436N-i444aS-dG462 (protein) MFLKSLREQINLLKRQGDLRIINRPVDSYLEAAAIIRRSTETKAPVPLMTNIKGYPGCSIVGGLAALSSNPEYPLSRVAMSLGLSTTASAQSIVQYLIDGLKKTPYLPVEIDSNSAPCKQNILRGEDASLAHFPIPQVHQHDGNRYVNTWGVFIVESPDGQWCNWSIQRVQYLNDRQMIALVFPSQHISDIWEEWVKIGKPMPYALVQGCEPIVPYIAGLPLLERNVNEAEYIGALYGKGIEVVKCETHDLRVPASSEVVIEGYFAITREGVEGPFGEFAGYTPPETSLEPILSITAISWQDDPIWPVVAEGKPVDEYHTCTGIGDAAAIQNVLLTANLPVSFVWVPLYSACHLMIVSINRHWRQTHPDLTSEQLTKKVGDVIHQTRMSIKLPRIVVLDDDVDPADTESLLWALATRIHPERKRYFYESAIFPWLNCYSEEERHNRKGKRVIIDALLPENHGAISSFDYAYPDDIKQRVLMHWETDFSHD | ++++
I283T-N285P-N287T-Q290E-S322T-N388M-K394R-C430A-L432F-L434W-S436N-i444aT-dG462 (protein) MFLKSLREQINLLKRQGDLRIINRPVDSYLEAAAIIRRSTETKAPVPLMTNIKGYPGCSIVGGLAALSSNPEYPLSRVAMSLGLSTTASAQSIVQYLIDGLKKTPYLPVEIDSNSAPCKQNILRGEDASLAHFPIPQVHQHDGNRYVNTWGVFIVESPDGQWCNWSIQRVQYLNDRQMIALVFPSQHISDIWEEWVKIGKPMPYALVQGCEPIVPYIAGLPLLERNVNEAEYIGALYGKGIEVVKCETHDLRVPASSEVVIEGYFAITREGVEGPFGEFAGYTPPETSLEPILSITAISWQDDPIWPVVAEGKPVDEYHTCTGIGDAAAIQNVLLTANLPVSFVWVPLYSACHLMIVSINRHWRQTHPDLTSEQLTKKVGDVIHQTRMSIKLPRIVVLDDDVDPADTESLLWALATRIHPERKRYFYESAIFPWLNCYSEEERHNRKGKRVIIDALLPENHGAISSFDYAYPDDIKQRVLMHWETDFSHD | ++++
I283T-N285P-N287T-Q290E-S322T-N388M-K394R-C430A-L432F-L434W-S436N-i444aE-dG462 (protein) MFLKSLREQINLLKRQGDLRIINRPVDSYLEAAAIIRRSTETKAPVPLMTNIKGYPGCSIVGGLAALSSNPEYPLSRVAMSLGLSTTASAQSIVQYLIDGLKKTPYLPVEIDSNSAPCKQNILRGEDASLAHFPIPQVHQHDGNRYVNTWGVFIVESPDGQWCNWSIQRVQYLNDRQMIALVFPSQHISDIWEEWVKIGKPMPYALVQGCEPIVPYIAGLPLLERNVNEAEYIGALYGKGIEVVKCETHDLRVPASSEVVIEGYFAITREGVEGPFGEFAGYTPPETSLEPILSITAISWQDDPIWPVVAEGKPVDEYHTCTGIGDAAAIQNVLLTANLPVSFVWVPLYSACHLMIVSINRHWRQTHPDLTSEQLTKKVGDVIHQTRMSIKLPRIVVLDDDVDPADTESLLWALATRIHPERKRYFYESAIFPWLNCYSEEERHNRKGKRVIIDALLPENHGAISSFDYAYPDDIKQRVLMHWETDFSHD | ++++
I283T-N285P-N287T-Q290E-S322T-N388M-K394R-C430A-L432F-L434W-S436N-i444aG-dG462 (protein) MFLKSLREQINLLKRQGDLRIINRPVDSYLEAAAIIRRSTETKAPVPLMTNIKGYPGCSIVGGLAALSSNPEYPLSRVAMSLGLSTTASAQSIVQYLIDGLKKTPYLPVEIDSNSAPCKQNILRGEDASLAHFPIPQVHQHDGNRYVNTWGVFIVESPDGQWCNWSIQRVQYLNDRQMIALVFPSQHISDIWEEWVKIGKPMPYALVQGCEPIVPYIAGLPLLERNVNEAEYIGALYGKGIEVVKCETHDLRVPASSEVVIEGYFAITREGVEGPFGEFAGYTPPETSLEPILSITAISWQDDPIWPVVAEGKPVDEYHTCTGIGDAAAIQNVLLTANLPVSFVWVPLYSACHLMIVSINRHWRQTHPDLTSEQLTKKVGDVIHQTRMSIKLPRIVVLDDDVDPADTESLLWALATRIHPERKRYFYESAIFPWLNCYSEEERHNRKGKRVIIDALLPENHGAISSFDYAYPDDIKQRVLMHWETDFSHD | ++++
V382L-N388M-K394R-C430N-L432F-L434W-S436N (protein) MFLKSLREQINLLKRQGDLRIINRPVDSYLEAAAIIRRSTETKAPVPLMTNIKGYPGCSIVGGLAALSSNPEYPLSRVAMSLGLSTTASAQSIVQYLIDGLKKTPYLPVEIDSNSAPCKQNILRGEDASLAHFPIPQVHQHDGNRYVNTWGVFIVESPDGQWCNWSIQRVQYLNDRQMIALVFPSQHISDIWEEWVKIGKPMPYALVQGCEPIVPYIAGLPLLERNVNEAEYIGALYGKGIEVVKCETHDLRVPASSEVVIEGYFAITREGVEGPFGEFAGYIPNENSLQPILSITAISWQDDPIWPVVAEGKPVDEYHTCSGIGDAAAIQNVLLTANLPVSFVWVPLYSACHLMIVSINRHWRQTHPDLTSEQLTKKVGDLIHQTRMSIKLPRIVVLDDDVDPADTESLLWALATRIHPERKRYFYESNIFPWLNCYSEEERHNRKGKRVIIDALLPENHGAISSFDYAYPDDIKQRVLMHWETDFSHD | +
